Patent US20260308536A1, “NOVEL URICASE VARIANTS AND METHODS OF USE THEREOF” (priority 2023, published 2026)
Numbering of substitutions follows the chain as printed. Names and notes keep the numbering of the source.

Experiments:
[1] = substrate: O=c1[nH]c(=O)c2[nH]c(=O)[nH]c2[nH]1; assay: Michaelis-Menten kinetics, MedU_1F1; format: biochemical, Arthrobacter globiformis; settings: other: role: substrate; non-PEGylated; Table 8B; pH 10.5
Protocol: (§1) Select Arthrobacter globiformis uricase variants MedU_1B7, MedU_5B8, MedU_1C2, MedU_5C9, MedU_5E6, MedU_5E9, and MedU_IF1 were subject to further characterization by comparing their expression yields, Michaelis-Menten kinetics parameters, and thermostability measured by temperatures at which 50% of normal activity was lost determined by heat stress activity assay, with those of the wild type Arthrobacter globiformis uricase. The expression yields were determined as described above in the “Methods” section. The Michaelis-Menten kinetics parameters kcat and KM, and temperatures at which 50% of normal activity was lost (i.e., 50% thermal inactivation temperatures, referred to as TI50 (° C.)) measured by heat stress activity assay were likewise determined using the methods described in Example 1.

[2] = substrate: O=c1[nH]c(=O)c2[nH]c(=O)[nH]c2[nH]1; assay: Michaelis-Menten kinetics, MedU_5B8; format: biochemical, Arthrobacter globiformis; settings: other: role: substrate; non-PEGylated; Table 8B; pH 10.5
Protocol: as §1

[3] = substrate: O=c1[nH]c(=O)c2[nH]c(=O)[nH]c2[nH]1; assay: Michaelis-Menten kinetics, MedU_5C9; format: biochemical, Arthrobacter globiformis; settings: other: role: substrate; non-PEGylated; Table 8B; pH 10.5
Protocol: as §1

[4] = substrate: O=c1[nH]c(=O)c2[nH]c(=O)[nH]c2[nH]1; assay: Michaelis-Menten kinetics, MedU_1C2; format: biochemical, Arthrobacter globiformis; settings: other: role: substrate; non-PEGylated; Table 8B; pH 10.5
Protocol: as §1

[5] = substrate: O=c1[nH]c(=O)c2[nH]c(=O)[nH]c2[nH]1; assay: Michaelis-Menten kinetics, MedU_1B7; format: biochemical, Arthrobacter globiformis; settings: other: role: substrate; non-PEGylated; Table 8B; pH 10.5
Protocol: as §1

[6] = substrate: O=c1[nH]c(=O)c2[nH]c(=O)[nH]c2[nH]1; assay: purified protein, by the assay type; format: biochemical, chimeric pig-baboon; settings: other: role: substrate
Protocol: Variants 1 (dURC1) and 3 (dURC3) were identified as possible lead candidates. Besides the mutations according to the library design, i.e., the designed mutations of F75Q; K79N; T83Q; E90H; F96H; I100E; Y105D; V119K; F172Y; L260N; and I262T, dURC3 comprised an off-position amino acid mutation K76N. An off-position amino acid mutation is defined as having a non-designed amino acid at a non-target site. […] Specifically, in the dURC1 backbone, the following mutations were tested separately: L154T; K155D; K155N; L157H; L157T; T159E; T159Q; and S162D; and in the dURC3 backbone, the K155N mutation was tested. […] The characteristics, including yield, activity, melting temperature measured by DSF, temperature at which 50% of normal activity was lost after heating measured by heat stress activity assay, Michaelis-Menten kinetics parameters, of variants 1, 2, 3, and 4 (i.e., dURC1, dURC2, dURC3 and dURC4), as well as the wild type chimeric pig-baboon uricase, are summarized in Table 2. The amino acid sequences of dURC1, dURC2, dURC3 and dURC4 are shown as SEQ ID NO: 1, 2, 3, and 4, respectively.
(§2) The activity of the purified enzymes was quantified by Michaelis Menten kinetic analysis, using the solution phase microplate assay across a range of substrate concentrations (FIG. 4B).

[7] = substrate: O=c1[nH]c(=O)c2[nH]c(=O)[nH]c2[nH]1; assay: purified protein, by the assay type; format: biochemical, chimeric pig-baboon; settings: other: role: substrate; remark: listed apart in the source
[8] = substrate: O=c1[nH]c(=O)c2[nH]c(=O)[nH]c2[nH]1; assay: purified protein, by the assay type; format: biochemical, chimeric pig-baboon; settings: other: role: substrate; remark: listed apart in the source
Source text: The monomeric form of the wild type chimeric pig-baboon uricase comprises the amino acid sequence of SEQ ID NO:5, where threonine is residue #1. The specified mutations in the chimeric pig-baboon uricase variants of this example are indexed to threonine as residue #1, as in SEQ ID NO:5. […] The expression vector pET-26b(+) encodes a His tag containing 6 histidine residues at the C-terminus of the inserted uricase gene.
as §2

[9] = substrate: O=c1[nH]c(=O)c2[nH]c(=O)[nH]c2[nH]1; assay: Michaelis-Menten kinetics, MedU_5E9; format: biochemical, Arthrobacter globiformis; settings: other: role: substrate; non-PEGylated; Table 8B; pH 10.5
Protocol: as §1

[10] = substrate: O=c1[nH]c(=O)c2[nH]c(=O)[nH]c2[nH]1; assay: Michaelis-Menten kinetics, wild type Arthrobacter globiformis uricase; format: biochemical; settings: other: role: substrate; non-PEGylated; Table 8B; pH 10.5
Source text: Non-PEGylated deimmunized Arthrobacter globiformis uricase variants were created by introducing additional amino acid substitutions into the R49S variant Arthrobacter globiformis uricase of SEQ ID NO:6 disclosed in Nyborg et al., PLOS One, 2016, DOI: 10.1371/journal.pone.0167935. For ease of description, the R49S variant Arthrobacter globiformis uricase of SEQ ID NO:6 is referred to as the wild type Arthrobacter globiformis uricase herein, as it serves as the enzyme being mutated to arrive at the variants. The monomeric form of the wild type Arthrobacter globiformis uricase comprises the amino acid sequence of SEQ ID NO:6, where methionine is residue #1. The specified mutations in the Arthrobacter globiformis uricase variants of this example are indexed to methionine as residue #1, as in SEQ ID NO:6. […]
Select Arthrobacter globiformis uricase variants MedU_1B7, MedU_5B8, MedU_1C2, MedU_5C9, MedU_5E6, MedU_5E9, and MedU_IF1 were subject to further characterization by comparing their expression yields, Michaelis-Menten kinetics parameters, and thermostability measured by temperatures at which 50% of normal activity was lost determined by heat stress activity assay, with those of the wild type Arthrobacter globiformis uricase. The expression yields were determined as described above in the “Methods” section. […]

[11] = non-PEGylated, pH 10.5, 25° C., Table 2
[12] = purified enzyme, non-linear regression, Table 3, pH 10.5, 25.0 °C

B1: Arthrobacter globiformis uricase variant MedU_1F1, A35D/A83G/L89G/V195E/Y203H/A204E/A213G/L220H/I243V/K244S/K250N, SEQ ID NO: 95 (Arthrobacter globiformis; … (protein)
chain: MTATAETSTGTKVVLGQNQYGKAEVRLVKVTRNTDRHEIQDLNVTSQLSGDFEAAHTAGDNAHVVATDTQKNTVYAFARDGFGTTEEFGLRLGKHFTEGFDWVTGGRWAAQQFFWDRINDHDHAFSRNKSEVRTAVLEISGSEQAIVAGIEGLTVLKSTGSEFHGFPRDKYTTLQETTDRILATDVSARWRYNTEEVDFDAVHESVRGLLLKGFAETHSHALQQTMYEMGRAVIETHPEIDEVSMSLPNNHHFLVDLQPFGQDNPNEVFYAADRPYGLIEATIQREGSRAD
notes: R49S backbone, 291 aa; pET-26b(+), C-terminal His6, E. coli; non-PEGylated
- Km [1]: 370 ± 60 µM
- kcat [1]: 2.5 ± 0.1 s⁻¹

B2: Arthrobacter globiformis uricase variant MedU_5B8, A35D/A83G/A145T/A148S/V195E/A204D/A213G/L220H/I243V/K244S, SEQ ID NO: 134 (Arthrobacter globiformis; … (protein)
chain: B1 chain with G89L, A145T, A148S, H203Y, E204D, N250K
notes: as for B1
- Km [2]: 390 ± 80 µM
- kcat [2]: 3.9 ± 0.2 s⁻¹

B3: Arthrobacter globiformis uricase variant MedU_5C9, A35D/A145H/A148S/V195D/A204D/A213G/K244S/K250N, SEQ ID NO: 144 (Arthrobacter globiformis; … (protein)
chain: B1 chain with G83A, G89L, A145H, A148S, E195D, H203Y, E204D, H220L, V243I
notes: as for B1
- Km [3]: 340 ± 80 µM
- kcat [3]: 2.4 ± 0.1 s⁻¹

B4: Arthrobacter globiformis uricase variant MedU_1C2, A145T/V195E/I243V/K244S/K250N/Y270H, SEQ ID NO: 80 (Arthrobacter globiformis; … (protein)
chain: B1 chain with D35A, G83A, G89L, A145T, H203Y, E204A, G213A, H220L, Y270H
notes: as for B1
- Km [4]: 500 ± 90 µM
- kcat [4]: 3.4 ± 0.2 s⁻¹

B5: Arthrobacter globiformis uricase variant MedU_1B7, A35D/A83G/A145T/A148S/A204G/A213G/I243V/K244S, SEQ ID NO: 77 (Arthrobacter globiformis; … (protein)
chain: B1 chain with G89L, A145T, A148S, E195V, H203Y, E204G, H220L, N250K
notes: as for B1
- Km [5]: 440 ± 90 µM
- kcat [5]: 3.8 ± 0.2 s⁻¹

B6: chimeric pig-baboon uricase variant 1 (dURC1), F75Q/K79E/T83Q/E90H/F96H/I100H/Y105D/V119K/Y127H/F172Y/L260N, SEQ ID NO: 1 (Sus scrofa; … (protein)
chain: TYKKNDEVEFVRTGYGKDMIKVLHIQRDGKYHSIKEVATTVQLTLSSKKDYLHGDNSDVIPTDTIKNTVNVLAKQKGIESIEQFAVTICHHFLSSHKHVHRAQVDVEEVPWKRFEKNGKKHVHAFIHTPTGTHFCEVEQIRNGPPVIHSGIKDLKVLKTTQSGFEGFIKDQYTTLPEVKDRCFATQVYCKWRYHQGRDVDFEATWDTVRSIVLQKFAGPYDKGEYSPSVQKTLYDIQVLTLGQVPEIEDMEISLPNIHYNNIDMSKMGLINKEEVLLPLDNPYGKITGTVKRKLSSRL
notes: purified
- Km [6, 11]: 678 µM
- Km [6, 12]: 700 ± 100 µM

B7: chimeric pig-baboon uricase variant 4 (dURC4), F75Q/K76N/K79N/T83Q/E90H/F96H/I100E/Y105D/V119K/K155N/F172Y/L260N/I262T, SEQ ID NO: 4 (Sus scrofa; … (protein)
chain: B6 chain with K76N, E79N, H100E, H127Y, K155N, I262T
notes: purified
- Km [6, 11]: 347 µM
- Km [6, 12]: 350 ± 20 µM

B8: chimeric pig-baboon uricase variant 2 (dURC2), F75Q/K79E/T83Q/E90H/F96H/I100H/Y105D/V119K/Y127H/K155N/F172Y/L260N, SEQ ID NO: 2 (Sus scrofa; … (protein)
chain: B6 chain with K155N
notes: purified
- Km [6, 11]: 467 µM
- Km [6, 12]: 470 ± 60 µM

B9: chimeric pig-baboon uricase variant 3 (dURC3), F75Q/K76N/K79N/T83Q/E90H/F96H/I100E/Y105D/V119K/F172Y/L260N/I262T, SEQ ID NO: 3 (Sus scrofa; … (protein)
chain: B6 chain with K76N, E79N, H100E, H127Y, I262T
notes: purified
- Km [7, 11]: 595 µM
- Km [7, 12]: 600 ± 70 µM

B10: chimeric pig-baboon uricase, wild type, SEQ ID NO: 5 (Sus scrofa; R291K/S46T/T301S) (protein)
chain: TYKKNDEVEFVRTGYGKDMIKVLHIQRDGKYHSIKEVATTVQLTLSSKKDYLHGDNSDVIPTDTIKNTVNVLAKFKGIKSIETFAVTICEHFLSSFKHVIRAQVYVEEVPWKRFEKNGVKHVHAFIYTPTGTHFCEVEQIRNGPPVIHSGIKDLKVLKTTQSGFEGFIKDQFTTLPEVKDRCFATQVYCKWRYHQGRDVDFEATWDTVRSIVLQKFAGPYDKGEYSPSVQKTLYDIQVLTLGQVPEIEDMEISLPNIHYLNIDMSKMGLINKEEVLLPLDNPYGKITGTVKRKLSSRL
notes: His6 (C); made in house; host or cells: E. coli
- Km [8, 11]: 397 µM
- Km [8, 12]: 400 ± 50 µM

B11: Arthrobacter globiformis uricase variant MedU_5E9, N33E/A35D/A83G/A145T/A148S/V195D/A204D/A213G/L220K/K244S/Y270H, SEQ ID NO: 164 (Arthrobacter globiformis; … (protein)
chain: MTATAETSTGTKVVLGQNQYGKAEVRLVKVTRETDRHEIQDLNVTSQLSGDFEAAHTAGDNAHVVATDTQKNTVYAFARDGFGTTEEFLLRLGKHFTEGFDWVTGGRWAAQQFFWDRINDHDHAFSRNKSEVRTAVLEISGSEQTIVSGIEGLTVLKSTGSEFHGFPRDKYTTLQETTDRILATDVSARWRYNTDEVDFDAVYDSVRGLLLKGFAETHSKALQQTMYEMGRAVIETHPEIDEISMSLPNKHHFLVDLQPFGQDNPNEVFHAADRPYGLIEATIQREGSRAD
notes: as for B1
- Km [9]: 800 ± 100 µM
- kcat [9]: 6.0 ± 0.4 s⁻¹

B12: Arthrobacter globiformis uricase, wild type (R49S variant, referred to as wild type), SEQ ID NO: 6 (Arthrobacter globiformis; R49S) (protein)
chain: MTATAETSTGTKVVLGQNQYGKAEVRLVKVTRNTARHEIQDLNVTSQLSGDFEAAHTAGDNAHVVATDTQKNTVYAFARDGFATTEEFLLRLGKHFTEGFDWVTGGRWAAQQFFWDRINDHDHAFSRNKSEVRTAVLEISGSEQAIVAGIEGLTVLKSTGSEFHGFPRDKYTTLQETTDRILATDVSARWRYNTVEVDFDAVYASVRGLLLKAFAETHSLALQQTMYEMGRAVIETHPEIDEIKMSLPNKHHFLVDLQPFGQDNPNEVFYAADRPYGLIEATIQREGSRAD
notes: as for B10
- Km [10]: 270 ± 80 µM
- kcat [10]: 2.3 ± 0.2 s⁻¹
